From patent US20170189519A1

B1: Fab fragment of CR6261 (Fab, V domains shown)
VH: EVQLVESGAEVKKPGSSVKVSCKASGGPFRSYAISWVRQAPGQGPEWMGGIIPIFGTTKYAPKFQGRVTITADDFAGTVYMELSSLRSEDTAMYYCAKHMGYQVRETMDVWGKGTTVTVSS
VL: QSVLTQPPSVSAAPGQKVTISCSGSSSNIGNDYVSWYQQLPGTAPKLLIYDNNKRPSGIPDRFSGSKSGTSATLGITGLQTGDEANYYCATWDRRPTAYVVFGGGTKLTVLG
B2: CR6261 (antibody, V domains shown)
VH: B1 VH
VL: B1 VL

Key:
Conditions in all cases: remark: other sources report otherwise
[1] = target: s127H1-t2-cl18long; assay: SEC-MALS with Fab fragments, protein of fraction 3
[2] = target: s127H1-t2-cl18long; assay: SEC-MALS with Fab fragments, protein of fraction 3 (ca. 110 kD alone)
[3] = target: s127H1-t2-cl18long
[4] = target: 26H1; assay: ELISA, coated CR6261, P. pastoris culture medium

Binder | Fab fragments bound per trimer (Fab fragments) [1] | size of the complex formed [2] [kD] | Kd [3] [nM] | CR6261 binding signal [4]
B1 | 3 | 215 | – | –
B2 | – | – | 0.7 | 78800
